Test results: paper PMC2942778 (Biochemistry, 2010)

Target: the molecule itself
Test: AUC

B1: BlaI gene repressor (blaI gene product) of plasmid pI258 from S. aureus NRS128 (natural protein)
chain: MANKQVEISMAEWDVMNIIWGKKSVSANEIVVEIQKYKEVSDKTIRTLITRLYKKEIIKRYKSENIYFYSSNIKEDDIKMKTAKTFLNKLYGGDMKSLVLNFAKNEELNNKEIEELRDILNDISKK
  Kd: 1.61 ± 0.02 µM
  stoichiometry N: 2
